Like-named read-outs stand apart in the source and are kept apart here. Each block holds one binder with its values, some of them ahead of it.
Tests used:
Rad51 [1] = target: T1, Rad51 (S. cerevisiae, UniProt P25454 1-400); experiment: pull-down
T1 sequence (looked up): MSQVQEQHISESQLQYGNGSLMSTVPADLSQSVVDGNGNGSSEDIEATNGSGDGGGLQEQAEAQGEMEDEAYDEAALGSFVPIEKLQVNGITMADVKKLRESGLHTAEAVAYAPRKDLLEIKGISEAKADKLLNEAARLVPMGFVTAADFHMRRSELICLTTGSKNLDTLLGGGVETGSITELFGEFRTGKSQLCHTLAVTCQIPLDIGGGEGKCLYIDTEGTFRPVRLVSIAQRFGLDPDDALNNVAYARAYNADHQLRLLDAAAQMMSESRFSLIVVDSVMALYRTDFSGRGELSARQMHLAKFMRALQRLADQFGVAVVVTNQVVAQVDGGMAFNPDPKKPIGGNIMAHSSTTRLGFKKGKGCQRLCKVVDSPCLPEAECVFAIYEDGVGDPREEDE

Rad51 [2] = target: T1, Rad51; experiment: pull-down; remark: listed apart in the source

binding result (Rad51 [1]): binds
B1: Mei5-Sae3 complex (complex, S. cerevisiae)
chain 1: MHNQEEWLDKDKTLVNEEENTCINHSYTKKDTNNYRVGKSGIKDLKKPTNQKEIAIKNRELTKQLTLLRQENNHLQQACKILSENKIIENRKSIEKWRTICEMELSFILNSTLIKINRMGGYKDFLEKEMEAKKRRLEYQIDNGMEDQICEIKESDDFRQLSEVEKQEWESQMNEQLKELEKKKIAELEKLNKVLHDSEGKDFGMAELCTRLKLDYSLIFPQ
chain 2: MNYLETQLNKKQKQIQEYESMNGNLIKMFEQLSKEKKNDETPKKISSTYIKELKEYNELRDAGLRLAQIIADEKQCKIKDVFEEIGYSMKD

binding result (Rad51 [2]): binds
B2: MBP-Mei5-N (domain or fragment, S. cerevisiae, UniProt P32489 1-121, looked up)
chain: MHNQEEWLDKDKTLVNEEENTCINHSYTKKDTNNYRVGKSGIKDLKKPTNQKEIAIKNRELTKQLTLLRQENNHLQQACKILSENKIIENRKSIEKWRTICEMELSFILNSTLIKINRMGG
